Columns and labels:
[1] = target: recombinant human Factor VIIa (300 nM), Novo Nordisk A/S (human) (UniProt P08709)
[2] = target: glandular kallikrein (1 U/ml), Sigma, St Louis, MO
[3] = target: Leukocyte Elastase, purified at Novo Nordisk A/S using the method of Baugh and Travis
[4] = target: human Factor XIa (1 nM) (human) (UniProt P03951)
[5] = target: human Factor Xa (3 nM) (human) (UniProt P00742)
[6] = target: plasma kallikrein (3 nM), Kabi
[7] = target: Urokinase (5 nM), Serono, Freigung, Germany
[8] = target: Chymotrypsin (2.5 nM), Novo Nordisk A/S
[9] = target: T1, Cathepsin G, purified at Novo Nordisk A/S using the method of Baugh and Travis
T1 sequence (P08311 21-244, species assumed, looked up): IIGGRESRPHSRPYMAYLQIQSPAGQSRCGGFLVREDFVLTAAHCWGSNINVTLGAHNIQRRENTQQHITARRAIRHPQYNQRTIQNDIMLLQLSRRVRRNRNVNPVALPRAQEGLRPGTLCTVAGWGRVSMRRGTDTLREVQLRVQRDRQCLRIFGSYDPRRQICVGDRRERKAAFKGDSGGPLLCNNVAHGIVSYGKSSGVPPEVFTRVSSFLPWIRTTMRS

[10] = target: human Factor XIIa (30 nM) (human) (UniProt P00748)
[11] = target: recombinant human activated protein C (5 nM), Novo Nordisk A/S (human) (UniProt P04070)
[12] = target: Trypsin (8 nM), Novo Nordisk A/S, Bagsvaerd, Denmark

For “APPH Kunitz-type inhibitor domain as tested in Table 3”, the % Inhibition [1] was 15%, the % Inhibition [2] was 97% and the % Inhibition [3] was 4%. For the same substance, the % Inhibition [4] was 99.8%, the % Inhibition [5] was 0% and the % Inhibition [6] was 69%. The % Inhibition (Plasmin (10 nM), Kabi) was 77%, the % Inhibition [7] was 2% and the % Inhibition [8] was 61%. For the same substance, the % Inhibition [9] was 0%, the % Inhibition [10] was 6% and the % Inhibition [11] was 0%. The % Inhibition [12] was 99.6%.

Reference: patent US5677146
